Source: the supplement of paper PMC10065799, “High-throughput profiling of sequence recognition by tyrosine kinases and SH2 domains using bacterial peptide display” (eLife, 2023)

Experiments:
SHP2-C SH2 = test: SH2 binding enrichment of the phosphorylated peptide, bacterial display (enrichment ratio); higher = better substrate or ligand; peptides without Tyr show the background
Grb2 SH2 = Grb2 SH2 (UniProt P62993); test: as above
c-Src SH2 = test: as above
AncSZ = test: phosphorylation enrichment, bacterial display (enrichment ratio); higher = better substrate or ligand; peptides without Tyr show the background
FGFR1 = FGFR1 (UniProt P11362); test: as above
EPHB2 = EPHB2 (UniProt P29323); test: as above
c-Abl (mouse) = test: as above
MERTK = MERTK (UniProt Q12866); test: as above
Fes = Fes (UniProt P07332); test: as above
c-Src = test: as above
Fyn = Fyn (UniProt P06241); test: as above
FGFR3 = FGFR3 (UniProt P22607); test: as above
EPHB1 = EPHB1 (UniProt P54762); test: as above
Fer (mouse) = test: as above
Hck = Hck (UniProt P08631); test: as above
Jak2 = Jak2 (UniProt O60674); test: as above
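Throughout, for SH2 binding enrichment of the phosphorylated peptide, bacterial display: peptide library displayed on the E. coli surface as eCPX fusions, selected cells deep-sequenced, score is each peptide's frequency after selection divided by its frequency in the input.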
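Throughout, for phosphorylation enrichment, bacterial display: 11-residue human phosphosite peptides and single-mutation variants displayed on the E. coli surface, counted by deep sequencing, each peptide's frequency after selection divided by its frequency in the unselected input library; frequency after pTyr selection over input frequency; kinase dosed for 20-30% of maximal phosphorylation in three min.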

EPHB1, sequence (P54762 whole entry, looked up): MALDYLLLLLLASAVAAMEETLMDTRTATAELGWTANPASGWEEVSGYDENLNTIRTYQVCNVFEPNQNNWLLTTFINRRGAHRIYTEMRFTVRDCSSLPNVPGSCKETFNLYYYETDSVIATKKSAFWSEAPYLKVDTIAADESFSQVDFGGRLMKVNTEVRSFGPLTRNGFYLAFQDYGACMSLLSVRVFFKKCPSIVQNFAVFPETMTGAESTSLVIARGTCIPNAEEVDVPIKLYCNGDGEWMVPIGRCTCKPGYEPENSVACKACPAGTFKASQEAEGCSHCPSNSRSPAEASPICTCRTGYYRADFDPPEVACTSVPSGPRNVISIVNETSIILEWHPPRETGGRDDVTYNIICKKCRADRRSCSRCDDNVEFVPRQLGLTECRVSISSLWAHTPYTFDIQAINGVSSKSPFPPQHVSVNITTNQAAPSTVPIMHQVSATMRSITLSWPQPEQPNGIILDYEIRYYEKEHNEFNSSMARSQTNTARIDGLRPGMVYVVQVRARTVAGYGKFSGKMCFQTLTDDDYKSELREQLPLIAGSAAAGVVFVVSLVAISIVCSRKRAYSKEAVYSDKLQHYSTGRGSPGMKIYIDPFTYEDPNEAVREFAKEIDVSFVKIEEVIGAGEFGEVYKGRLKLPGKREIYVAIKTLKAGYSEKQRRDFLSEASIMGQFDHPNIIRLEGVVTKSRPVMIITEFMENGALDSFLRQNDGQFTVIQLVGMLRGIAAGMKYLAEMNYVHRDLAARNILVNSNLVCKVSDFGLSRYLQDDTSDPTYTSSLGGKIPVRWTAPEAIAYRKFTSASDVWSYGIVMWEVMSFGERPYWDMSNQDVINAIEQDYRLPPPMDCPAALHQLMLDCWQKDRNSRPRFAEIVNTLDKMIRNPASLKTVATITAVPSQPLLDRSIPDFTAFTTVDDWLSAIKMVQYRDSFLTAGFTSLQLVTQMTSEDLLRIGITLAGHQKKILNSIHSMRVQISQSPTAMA
Jak2, sequence (O60674 whole entry, looked up, the tested form may be a part): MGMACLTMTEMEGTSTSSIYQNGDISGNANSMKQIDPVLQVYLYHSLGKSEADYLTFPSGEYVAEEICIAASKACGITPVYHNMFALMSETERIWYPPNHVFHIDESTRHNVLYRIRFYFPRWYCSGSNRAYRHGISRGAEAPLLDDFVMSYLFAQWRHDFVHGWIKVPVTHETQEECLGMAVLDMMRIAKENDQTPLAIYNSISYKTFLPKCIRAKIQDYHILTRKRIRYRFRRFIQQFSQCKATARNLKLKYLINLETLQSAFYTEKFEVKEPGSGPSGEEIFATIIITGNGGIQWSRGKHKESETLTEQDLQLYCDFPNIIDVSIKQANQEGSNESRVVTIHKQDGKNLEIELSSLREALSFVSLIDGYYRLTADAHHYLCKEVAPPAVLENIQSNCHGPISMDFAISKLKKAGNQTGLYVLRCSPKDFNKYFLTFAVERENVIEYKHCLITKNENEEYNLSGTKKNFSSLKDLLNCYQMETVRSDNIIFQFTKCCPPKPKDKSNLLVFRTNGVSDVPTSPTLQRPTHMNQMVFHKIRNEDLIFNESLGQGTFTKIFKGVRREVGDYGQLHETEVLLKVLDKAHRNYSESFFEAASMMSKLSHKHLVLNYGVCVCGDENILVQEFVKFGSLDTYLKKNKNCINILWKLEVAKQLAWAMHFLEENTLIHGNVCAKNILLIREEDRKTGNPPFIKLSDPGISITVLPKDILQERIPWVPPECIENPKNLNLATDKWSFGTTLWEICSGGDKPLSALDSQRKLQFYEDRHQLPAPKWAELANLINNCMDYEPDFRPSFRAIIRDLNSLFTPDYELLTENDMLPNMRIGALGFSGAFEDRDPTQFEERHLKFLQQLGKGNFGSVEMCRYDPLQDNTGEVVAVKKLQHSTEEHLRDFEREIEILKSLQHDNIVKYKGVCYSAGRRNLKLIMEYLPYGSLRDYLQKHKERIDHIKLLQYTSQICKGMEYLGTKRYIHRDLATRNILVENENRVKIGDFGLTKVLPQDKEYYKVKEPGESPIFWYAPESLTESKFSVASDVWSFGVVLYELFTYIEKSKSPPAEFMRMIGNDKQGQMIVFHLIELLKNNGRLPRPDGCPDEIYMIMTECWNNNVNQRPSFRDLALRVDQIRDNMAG
Fes, sequence (P07332 whole entry, looked up): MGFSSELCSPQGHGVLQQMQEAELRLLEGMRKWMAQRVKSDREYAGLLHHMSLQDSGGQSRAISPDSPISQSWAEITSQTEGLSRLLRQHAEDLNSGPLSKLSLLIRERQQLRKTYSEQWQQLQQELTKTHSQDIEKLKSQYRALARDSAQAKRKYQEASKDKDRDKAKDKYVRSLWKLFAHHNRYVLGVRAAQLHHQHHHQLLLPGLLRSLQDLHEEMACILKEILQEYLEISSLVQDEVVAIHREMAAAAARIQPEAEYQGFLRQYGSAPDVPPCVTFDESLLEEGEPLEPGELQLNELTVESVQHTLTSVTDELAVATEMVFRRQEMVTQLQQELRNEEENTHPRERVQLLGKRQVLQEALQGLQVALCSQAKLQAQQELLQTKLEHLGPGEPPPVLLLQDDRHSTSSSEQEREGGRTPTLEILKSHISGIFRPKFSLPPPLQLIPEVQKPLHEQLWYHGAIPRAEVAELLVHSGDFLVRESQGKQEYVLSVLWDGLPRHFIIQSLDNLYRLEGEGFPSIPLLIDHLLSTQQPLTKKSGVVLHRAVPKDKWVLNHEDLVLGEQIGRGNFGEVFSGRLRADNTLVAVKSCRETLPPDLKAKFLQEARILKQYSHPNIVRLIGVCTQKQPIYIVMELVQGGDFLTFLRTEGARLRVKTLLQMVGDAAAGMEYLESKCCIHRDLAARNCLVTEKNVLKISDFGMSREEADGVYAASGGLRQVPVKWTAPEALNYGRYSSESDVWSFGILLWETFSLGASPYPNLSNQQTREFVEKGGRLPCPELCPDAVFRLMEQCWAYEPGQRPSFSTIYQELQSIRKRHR
Fyn, sequence (P06241 whole entry, looked up): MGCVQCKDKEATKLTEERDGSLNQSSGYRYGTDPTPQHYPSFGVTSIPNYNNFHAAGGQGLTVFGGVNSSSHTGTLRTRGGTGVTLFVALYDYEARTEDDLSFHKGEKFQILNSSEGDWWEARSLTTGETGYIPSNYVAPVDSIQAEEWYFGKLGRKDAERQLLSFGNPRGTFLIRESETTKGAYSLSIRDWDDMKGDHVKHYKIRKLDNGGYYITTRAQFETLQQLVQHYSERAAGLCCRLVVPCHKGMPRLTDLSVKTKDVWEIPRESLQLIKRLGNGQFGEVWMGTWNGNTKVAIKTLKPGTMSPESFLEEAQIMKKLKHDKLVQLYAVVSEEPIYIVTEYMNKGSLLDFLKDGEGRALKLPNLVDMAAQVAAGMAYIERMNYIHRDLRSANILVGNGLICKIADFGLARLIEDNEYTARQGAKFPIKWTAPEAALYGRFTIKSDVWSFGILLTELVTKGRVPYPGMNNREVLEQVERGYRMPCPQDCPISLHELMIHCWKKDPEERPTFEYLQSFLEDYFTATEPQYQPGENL
FGFR1, sequence (P11362 whole entry, looked up): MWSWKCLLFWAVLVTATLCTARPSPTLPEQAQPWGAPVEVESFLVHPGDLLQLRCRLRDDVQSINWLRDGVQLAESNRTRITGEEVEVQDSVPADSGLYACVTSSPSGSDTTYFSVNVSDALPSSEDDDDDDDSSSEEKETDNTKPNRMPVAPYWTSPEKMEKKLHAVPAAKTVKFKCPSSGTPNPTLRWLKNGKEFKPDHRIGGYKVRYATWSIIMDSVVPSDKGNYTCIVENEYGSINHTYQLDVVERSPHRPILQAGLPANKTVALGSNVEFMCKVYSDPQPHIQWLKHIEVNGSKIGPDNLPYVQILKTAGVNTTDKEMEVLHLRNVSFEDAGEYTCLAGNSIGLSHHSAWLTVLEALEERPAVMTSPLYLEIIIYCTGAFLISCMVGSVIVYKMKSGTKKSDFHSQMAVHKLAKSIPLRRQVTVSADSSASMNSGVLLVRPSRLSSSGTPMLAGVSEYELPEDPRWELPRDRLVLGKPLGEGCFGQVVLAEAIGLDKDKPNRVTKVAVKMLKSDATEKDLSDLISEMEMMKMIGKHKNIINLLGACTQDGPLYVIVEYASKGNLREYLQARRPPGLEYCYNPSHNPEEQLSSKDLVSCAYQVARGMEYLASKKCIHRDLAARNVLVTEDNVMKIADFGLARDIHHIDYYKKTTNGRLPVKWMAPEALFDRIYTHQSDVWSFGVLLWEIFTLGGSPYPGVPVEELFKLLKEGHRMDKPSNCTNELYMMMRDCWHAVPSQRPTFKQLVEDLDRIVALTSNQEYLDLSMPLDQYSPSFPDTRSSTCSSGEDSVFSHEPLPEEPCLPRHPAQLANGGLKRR
FGFR3, sequence (P22607 whole entry, looked up): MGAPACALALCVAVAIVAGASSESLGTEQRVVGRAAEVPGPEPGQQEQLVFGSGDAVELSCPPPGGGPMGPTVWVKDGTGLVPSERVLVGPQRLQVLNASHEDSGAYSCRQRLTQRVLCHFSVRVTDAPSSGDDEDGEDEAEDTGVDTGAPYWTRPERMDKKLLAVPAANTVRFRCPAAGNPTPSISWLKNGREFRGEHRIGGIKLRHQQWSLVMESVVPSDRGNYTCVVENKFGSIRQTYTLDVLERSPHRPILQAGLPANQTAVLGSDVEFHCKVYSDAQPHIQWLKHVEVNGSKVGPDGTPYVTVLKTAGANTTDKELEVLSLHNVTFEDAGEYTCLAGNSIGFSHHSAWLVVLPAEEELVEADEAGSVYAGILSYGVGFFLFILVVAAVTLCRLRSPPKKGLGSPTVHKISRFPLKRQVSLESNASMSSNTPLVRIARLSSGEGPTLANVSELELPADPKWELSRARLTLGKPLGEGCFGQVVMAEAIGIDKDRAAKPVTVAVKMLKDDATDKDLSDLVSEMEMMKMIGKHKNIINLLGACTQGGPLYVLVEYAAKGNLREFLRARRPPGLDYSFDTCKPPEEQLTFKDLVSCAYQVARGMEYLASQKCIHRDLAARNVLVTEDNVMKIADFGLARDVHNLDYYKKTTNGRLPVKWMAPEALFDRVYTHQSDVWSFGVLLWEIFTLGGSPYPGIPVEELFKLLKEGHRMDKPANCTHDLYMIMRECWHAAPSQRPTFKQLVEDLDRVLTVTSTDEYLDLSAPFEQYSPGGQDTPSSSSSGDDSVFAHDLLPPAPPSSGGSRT

Sequence | SH2 binding enrichment (SHP2-C SH2) | SH2 binding enrichment (Grb2 SH2) | SH2 binding enrichment (c-Src SH2) | phosphorylation enrichment (AncSZ) | phosphorylation enrichment (FGFR1) | phosphorylation enrichment (EPHB2) | phosphorylation enrichment (c-Abl (mouse)) | phosphorylation enrichment (MERTK) | phosphorylation enrichment (Fes) | phosphorylation enrichment (c-Src) | phosphorylation enrichment (Fyn) | phosphorylation enrichment (FGFR3) | phosphorylation enrichment (EPHB1) | phosphorylation enrichment (Fer (mouse)) | phosphorylation enrichment (Hck) | phosphorylation enrichment (Jak2)
IHADIYRWFNI [MARS1_Y344] | 1.17 | 1.65 | 1.19 | 1.22 | 9.43 | 0.6 | 6.74 | 5 | 1.42 | 3.77 | 2.23 | 6.99 | 0.716 | 8.95 | 2.14 | 1.12
IHYPPYTDWNQ [ALDH3B2_Y365] | 0.71 | 0.883 | 1.25 | 0.889 | 1.14 | 0.676 | 0.938 | 0.429 | 0.933 | 0.573 | 0.512 | 0.881 | 0.527 | 2.21 | 0.655 | 0.736
IIRFNYLLDVL [FGFR4_Y237_S232I_YF] | 2.19 | 2.13 | 1.13 | 1.2 | 0.809 | 0.478 | 0.996 | 0.465 | 1.31 | 0.525 | 0.513 | 0.763 | 0.688 | 0.47 | 0.522 | 0.89
IKKFKYGIEEH [GJA1_Y137] | 0.61 | 0.644 | 0.502 | 0.836 | 0.4 | 0.497 | 0.498 | 0.323 | 0.697 | 0.336 | 0.374 | 0.476 | 0.42 | 0.382 | 0.402 | 0.582
IKKLIYVYLVI [JAGN1_Y42_H44Y] | 1.06 | 1.4 | 0.612 | 0.873 | 0.351 | 0.411 | 0.955 | 0.427 | 0.97 | 0.475 | 0.412 | 0.452 | 0.466 | 0.323 | 0.43 | 0.817
ILDEAYVMAGA [ERBB2_Y772_V777A] | 0.857 | 0.736 | 0.543 | 1.48 | 0.639 | 0.67 | 0.761 | 0.507 | 1.27 | 0.744 | 0.596 | 0.789 | 0.662 | 0.516 | 0.537 | 0.986
ILTLKYPIEHG [ACTA1_Y71] | 0.806 | 0.816 | 0.502 | 0.716 | 0.47 | 0.485 | 0.57 | 0.391 | 0.78 | 0.376 | 0.437 | 0.592 | 0.476 | 0.391 | 0.453 | 0.584
ILTLKYPIELG [ACTA1_Y71_H75L] | 0.94 | 1.14 | 0.731 | 0.886 | 0.47 | 0.572 | 0.476 | 0.352 | 0.986 | 0.352 | 0.435 | 0.601 | 0.578 | 0.457 | 0.518 | 0.74
INMKKYCKKDF [NTN1_Y490_YF] | 1.13 | 0.953 | 0.807 | 0.854 | 0.56 | 0.522 | 0.734 | 0.659 | 0.948 | 0.491 | 0.438 | 0.757 | 0.45 | 0.572 | 0.437 | 0.689
IPGMEYLVSII [TNC_Y1775_V1773M] | 1.15 | 0.991 | 0.641 | 1.44 | 0.72 | 0.855 | 0.825 | 0.565 | 1.41 | 0.583 | 0.612 | 0.889 | 0.65 | 0.722 | 0.522 | 1.11
IRQDHYESLKE [MTR_Y921] | 0.771 | 0.961 | 5.75 | 0.755 | 0.45 | 0.482 | 0.56 | 0.509 | 0.873 | 0.48 | 0.494 | 0.693 | 0.529 | 0.483 | 0.594 | 0.733
ISISPYPAILH [IFT80_Y588_T586S] | 0.45 | 0.724 | 0.408 | 1.01 | 0.341 | 0.401 | 0.557 | 0.354 | 0.961 | 0.358 | 0.343 | 0.547 | 0.428 | 0.418 | 0.377 | 0.765
ISKKHYAGLLF [POLD1_Y809_R808H] | 12.4 | 1.22 | 2.04 | 0.545 | 0.468 | 0.381 | 0.521 | 0.456 | 0.671 | 0.436 | 0.42 | 0.643 | 0.317 | 0.469 | 0.46 | 0.636
ITLPIYTKGSE [ANK2_Y1455_E1458G] | 0.715 | 0.78 | 0.392 | 0.63 | 0.392 | 0.478 | 0.446 | 0.481 | 0.759 | 0.529 | 0.581 | 0.502 | 0.599 | 0.451 | 0.645 | 0.571
ITRDIYETDFF [INSR_Y1185_M1180I_YF] | 0.485 | 0.83 | 1.12 | 1.44 | 0.539 | 0.711 | 0.698 | 1.26 | 1.25 | 1.75 | 1.46 | 0.738 | 0.803 | 0.983 | 1.12 | 1.16
ITVPAYFNDLQ [HSPA9_Y196_S200L] | 0.722 | 1.15 | 0.583 | 1.13 | 0.555 | 0.495 | 0.766 | 0.431 | 1.3 | 0.468 | 0.452 | 0.77 | 0.705 | 0.524 | 0.538 | 1.15
IVGRLYRLLTE [SETX_Y1978_L1976R] | 0.734 | 1.05 | 0.738 | 1.1 | 0.418 | 0.494 | 0.676 | 0.396 | 1.12 | 0.331 | 0.376 | 0.644 | 0.481 | 0.37 | 0.387 | 0.954

Sequence | SH2 binding enrichment (SHP2-C SH2) | SH2 binding enrichment (Grb2 SH2) | SH2 binding enrichment (c-Src SH2) | phosphorylation enrichment (AncSZ) | phosphorylation enrichment (FGFR1) | phosphorylation enrichment (EPHB2) | phosphorylation enrichment (c-Abl (mouse)) | phosphorylation enrichment (MERTK) | phosphorylation enrichment (Fes) | phosphorylation enrichment (c-Src) | phosphorylation enrichment (Fyn) | phosphorylation enrichment (FGFR3) | phosphorylation enrichment (EPHB1) | phosphorylation enrichment (Fer (mouse)) | phosphorylation enrichment (Hck) | phosphorylation enrichment (Jak2)
IVLRSYPASGH [NID2_Y449] | 0.831 | 0.716 | 0.533 | 0.726 | 0.392 | 0.451 | 0.511 | 0.493 | 0.817 | 0.415 | 0.481 | 0.596 | 0.532 | 0.479 | 0.415 | 0.682
IVRSLYEDVED [VHL_Y185_L188V] | 0.63 | 0.937 | 11.8 | 1.3 | 0.502 | 0.701 | 0.834 | 0.458 | 1.26 | 0.51 | 0.488 | 0.674 | 0.611 | 1.69 | 0.526 | 1.21
IVRSRYEDLED [VHL_Y185_L184R] | 0.602 | 0.897 | 0.413 | 1.37 | 0.664 | 0.759 | 0.968 | 0.788 | 0.946 | 0.585 | 0.693 | 0.704 | 0.675 | 0.619 | 0.651 | 0.964
IYHLSYIHNCE [PDE6B_Y227_L228I] | 1.27 | 1.35 | 0.819 | 1.3 | 2.65 | 0.724 | 4.3 | 4.22 | 1.38 | 2.65 | 2.78 | 2.16 | 0.783 | 1.67 | 1.81 | 1.18
IYRASYYRRGD [LTK_Y676] | 0.471 | 0.728 | 0.439 | 0.821 | 0.481 | 0.422 | 0.927 | 0.763 | 0.757 | 0.666 | 0.594 | 0.555 | 0.398 | 0.453 | 1.2 | 0.621
KACNPYKPPGP | 0.893 | 1.01 | 0.76 | 0.629 | 0.462 | 0.478 | 0.524 | 0.543 | 0.663 | 0.699 | 0.521 | 0.589 | 0.464 | 0.521 | 0.496 | 0.881
KAPVDYIRKLQ [MITF_Y360_S357P] | 0.621 | 0.912 | 0.489 | 0.547 | 0.328 | 0.436 | 0.475 | 0.399 | 0.616 | 0.406 | 0.338 | 0.423 | 0.416 | 0.365 | 0.346 | 0.576
KASIMYPSNNC [CXCL11_Y52] | 0.504 | 0.952 | 0.589 | 0.673 | 0.484 | 0.472 | 0.518 | 0.368 | 0.786 | 0.394 | 0.446 | 0.49 | 0.528 | 0.359 | 0.459 | 0.604
KDHPDYEFQPR [SOX9_Y172_K173E_YF] | 0.73 | 0.863 | 0.568 | 1.81 | 0.712 | 0.585 | 0.509 | 0.319 | 0.723 | 0.425 | 0.448 | 0.614 | 1.05 | 0.475 | 0.504 | 0.665
KDQGTYEDFVE [MYL6_Y86_YF] | 0.247 | 0.509 | 1.46 | 1.31 | 0.906 | 0.59 | 1.97 | 1.12 | 2.32 | 1.31 | 0.616 | 1.35 | 0.569 | 0.911 | 0.966 | 1.94
KFDLMYAKWAF [TUBA3E_Y399] | 0.919 | 1.24 | 1.18 | 1.18 | 0.669 | 0.784 | 1.68 | 3.02 | 1.26 | 1.98 | 1.43 | 0.866 | 0.783 | 5.85 | 2.16 | 1
KFLVGYEMLAQ [GALT_Y339_M336L] | 1.06 | 1.01 | 2.72 | 0.701 | 0.408 | 0.434 | 0.578 | 0.323 | 0.977 | 0.378 | 0.386 | 0.661 | 0.434 | 0.395 | 0.416 | 0.747
KFRREYILSLE [GPC3_Y299_W296R_YF] | 0.708 | 0.86 | 0.594 | 0.786 | 0.518 | 0.586 | 0.601 | 0.455 | 0.772 | 0.5 | 0.518 | 0.466 | 0.551 | 0.442 | 0.474 | 0.61
KGKLIYLLGDS [NXPE1_Y350] | 1.24 | 1.2 | 1.17 | 0.803 | 0.434 | 0.42 | 0.529 | 0.343 | 0.922 | 0.661 | 0.551 | 0.521 | 0.391 | 0.471 | 0.478 | 0.639
KHMADYPDYKY [SOX11_Y113] | 0.847 | 0.844 | 0.519 | 0.642 | 0.453 | 0.471 | 0.404 | 0.322 | 0.616 | 0.4 | 0.407 | 0.632 | 0.458 | 0.42 | 0.401 | 0.442
KIEGVYARDET [RPL35A_Y34] | 0.705 | 0.671 | 0.542 | 0.784 | 0.437 | 0.612 | 0.633 | 0.386 | 0.878 | 0.56 | 0.555 | 0.55 | 0.515 | 0.387 | 0.586 | 0.681
